Data from patent US20210139548A1 (published 2021).
*1 amine or outer side, *2 acyl side, *3 side chain or, on linkers, in order; H or OH if unused. Side-chain parts run from the residue outwards. The star is where a group is joined. C18 diacid = O=C(O)CCCCCCCCCCCCCCCCC(=O)*; γGlu = O=C(O)[C@H](CCC(=O)[*:2])N[*:1]; Isovaleryl = CC(C)CC(=O)*; AEEA = NCCOCCOCC(=O)O

Target: T1, human neuropeptide Y2 receptor (human, UniProt P49146 1-381)
T1 construct: whole, on cells; also called hNPY2 receptor; hNPY2-R
T1 sequence (looked up): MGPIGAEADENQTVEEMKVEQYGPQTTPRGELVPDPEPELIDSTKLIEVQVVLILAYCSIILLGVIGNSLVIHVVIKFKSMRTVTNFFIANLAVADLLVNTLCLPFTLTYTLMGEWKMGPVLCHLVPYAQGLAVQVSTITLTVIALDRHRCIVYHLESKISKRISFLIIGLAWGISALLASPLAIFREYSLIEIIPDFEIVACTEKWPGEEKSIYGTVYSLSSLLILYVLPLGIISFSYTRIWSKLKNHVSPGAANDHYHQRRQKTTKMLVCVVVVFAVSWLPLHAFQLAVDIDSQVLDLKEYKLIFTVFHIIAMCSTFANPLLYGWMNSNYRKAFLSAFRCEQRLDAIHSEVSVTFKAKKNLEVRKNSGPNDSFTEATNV
Assay: radioligand competition (125I-PYY(1-36)), hNPY2R membranes
Outline: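 Commercial human Y2 receptor membranes (0.5 μg protein/well) were incubated with peptide for 2 h at room temperature in 50 mM HEPES, 5 mM MgCl₂, 1 mM CaCl₂, pH 7.4, with 0.2% ovalbumin. Bound radioligand was separated on PEI-soaked GF/C filters and counted by scintillation, and IC₅₀ came from nonlinear sigmoidal regression.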

B1: Compound 153 (peptide)
peptide: Isovaleryl-APEK([AEEA-AEEA-γGlu-C18 diacid])VEEEASPEELQRYYVSLRHYYNWLTRQRY-NH2
SMILES: CC(C)CC(=O)N[C@@H](C)C(=O)N1CCC[C@H]1C(=O)N[C@@H](CCC(=O)O)C(=O)N[C@@H](CCCCNC(=O)COCCOCCNC(=O)COCCOCCNC(=O)CC[C@H](NC(=O)CCCCCCCCCCCCCCCCC(=O)O)C(=O)O)C(=O)N[C@H](C(=O)N[C@@H](CCC(=O)O)C(=O)N[C@@H](CCC(=O)O)C(=O)N[C@@H](CCC(=O)O)C(=O)N[C@@H](C)C(=O)N[C@@H](CO)C(=O)N1CCC[C@H]1C(=O)N[C@@H](CCC(=O)O)C(=O)N[C@@H](CCC(=O)O)C(=O)N[C@@H](CC(C)C)C(=O)N[C@@H](CCC(N)=O)C(=O)N[C@@H](CCCNC(=N)N)C(=O)N[C@@H](Cc1ccc(O)cc1)C(=O)N[C@@H](Cc1ccc(O)cc1)C(=O)N[C@H](C(=O)N[C@@H](CO)C(=O)N[C@@H](CC(C)C)C(=O)N[C@@H](CCCNC(=N)N)C(=O)N[C@@H](Cc1c[nH]cn1)C(=O)N[C@@H](Cc1ccc(O)cc1)C(=O)N[C@@H](Cc1ccc(O)cc1)C(=O)N[C@@H](CC(N)=O)C(=O)N[C@@H](Cc1c[nH]c2ccccc12)C(=O)N[C@@H](CC(C)C)C(=O)N[C@H](C(=O)N[C@@H](CCCNC(=N)N)C(=O)N[C@@H](CCC(N)=O)C(=O)N[C@@H](CCCNC(=N)N)C(=O)N[C@@H](Cc1ccc(O)cc1)C(N)=O)[C@@H](C)O)C(C)C)C(C)C
Ki: 14.4 nM

B2: Compound 155 (peptide)
peptide: Isovaleryl-APEK([AEEA-AEEA-γGlu-C18 diacid])PEEDASPEETQRYYVSLRHYYNWLTRQRY-NH2
SMILES: CC(C)CC(=O)N[C@@H](C)C(=O)N1CCC[C@H]1C(=O)N[C@@H](CCC(=O)O)C(=O)N[C@@H](CCCCNC(=O)COCCOCCNC(=O)COCCOCCNC(=O)CC[C@H](NC(=O)CCCCCCCCCCCCCCCCC(=O)O)C(=O)O)C(=O)N1CCC[C@H]1C(=O)N[C@@H](CCC(=O)O)C(=O)N[C@@H](CCC(=O)O)C(=O)N[C@@H](CC(=O)O)C(=O)N[C@@H](C)C(=O)N[C@@H](CO)C(=O)N1CCC[C@H]1C(=O)N[C@@H](CCC(=O)O)C(=O)N[C@@H](CCC(=O)O)C(=O)N[C@H](C(=O)N[C@@H](CCC(N)=O)C(=O)N[C@@H](CCCNC(=N)N)C(=O)N[C@@H](Cc1ccc(O)cc1)C(=O)N[C@@H](Cc1ccc(O)cc1)C(=O)N[C@H](C(=O)N[C@@H](CO)C(=O)N[C@@H](CC(C)C)C(=O)N[C@@H](CCCNC(=N)N)C(=O)N[C@@H](Cc1c[nH]cn1)C(=O)N[C@@H](Cc1ccc(O)cc1)C(=O)N[C@@H](Cc1ccc(O)cc1)C(=O)N[C@@H](CC(N)=O)C(=O)N[C@@H](Cc1c[nH]c2ccccc12)C(=O)N[C@@H](CC(C)C)C(=O)N[C@H](C(=O)N[C@@H](CCCNC(=N)N)C(=O)N[C@@H](CCC(N)=O)C(=O)N[C@@H](CCCNC(=N)N)C(=O)N[C@@H](Cc1ccc(O)cc1)C(N)=O)[C@@H](C)O)C(C)C)[C@@H](C)O
Ki: 2.05 nM
